The supplement of paper PMC10724198
± gives the standard deviation of the averaged measurements.

Tested on: Saccharomyces cerevisiae
Test: protein stability index of tFT-peptide fusion (C-terminal peptide) (PSI (0-1 scale)); higher = more stable (slower turnover)
Details: genetic background: wild type; temperature: 30 C
Experimental: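 Multiplexed protein stability (MPS) profiling in S. cerevisiae. Random 12-aa peptides (tFT-X12 library) are fused to the C-terminus of a sfGFP-mCherry tandem fluorescent timer, after mCherry and a GGGS linker. Cells are FACS-sorted into 8 mCherry/sfGFP bins and deep-sequenced. The protein stability index (PSI) is the read-weighted bin average, scaled from 0 (unstable) to 1 (stable). Only peptides with >10 reads are reported; cells were grown at 30 °C in SC-His with glucose.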
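Note: PSI is a weighted mean of sequencing reads over stability bins, variants kept only with over 10 reads, mCherry proximal and sfGFP distal, peptide attached via GGGS linker.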

Sequence	protein stability index
GVLACVEYSRMS	0.683 ± 0.0084
GVLARAYPTLWV	0.68 ± 0.035
GVLGCCGLAWRG	0.697 ± 0.073
GVLRVRLLAFGL	0.65 ± 0.026
GVLVGLGWGWGG	0.7135 ± 0.0011
GVNGFRIVCGGE	0.674 ± 0.062
GVNLFEIVRSVT	0.7169 ± 0.0012
GVNTKEEPNEFI	0.698 ± 0.041
GVPQEGHGLEGY	0.7045 ± 0.00013
GVPRMLVGAFRG	0.684 ± 0.022
GVQSSAPVKVRI	0.6551 ± 0.0046
GVRRPYRSDLRL	0.678 ± 0.023
GVRRVAVLYLLY	0.527 ± 0.041
GVSAKVRRETVR	0.725 ± 0.078
GVSCIAEGRGGV	0.6693 ± 0.0045
GVSGGFVGSSGG	0.62 ± 0.024
GVSTGSGASVAA	0.659 ± 0.051
GVVFGWAGYKGT	0.677 ± 0.034
GVVGDGGRLSGD	0.667 ± 0.022
GVVGTISLFVLD	0.61 ± 0.018
GVVPCVVGFICG	0.687 ± 0.04
GVVRLYYLRIGR	0.652 ± 0.11
GVVVLGRRMGAG	0.6441 ± 0.0049
GVVVRGGEWGLD	0.675 ± 0.061
GVWVMSGPVTRR	0.716 ± 0.053

Sequence	protein stability index
GWAVGVGGGRGR	0.686 ± 0.017
GWAWGVALGVRG	0.54189 ± 0.00034
GWFFFGCFECGG	0.731 ± 0.024
GWFRDCEWGASS	0.712 ± 0.061
GWFWGRGGRGRG	0.657 ± 0.05
GWGFVGGTVAAV	0.705 ± 0.034
GWGHYFGLIREQ	0.698 ± 0.045
GWGLCGRAAGVE	0.692 ± 0.011
GWGWDAVGVGGP	0.711 ± 0.0074
GWLCARGSSSRP	0.649 ± 0.0067
GWLGVRVCLAQR	0.616 ± 0.0081
GWLLGVGDEFRR	0.734 ± 0.031
GWRGDTSGGGWR	0.655 ± 0.03
GWRGRRGERARG	0.749 ± 0.054
GWRGVGVGGGVC	0.689 ± 0.017
GWSGWFSRVLRG	0.726 ± 0.039
GWTLIFGRTSEG	0.678 ± 0.023
GWVKWGVGIGRG	0.734 ± 0.079
GWWGGEGVEGEP	0.6846 ± 0.0015
GWWGGGGGAWSG	0.697 ± 0.065
GYGLGVEAEGLE	0.715 ± 0.054
GYGSSVYAVQKL	0.608 ± 0.0096
GYILSFPSVGGW	0.724 ± 0.049
GYLNWIDTRTSE	0.79 ± 0.086
GYNLTNVIPGVG	0.681 ± 0.016

Sequence	protein stability index
GYPIIIFYSAVQ	0.529 ± 0.051
GYPPDPSPPRLL	0.724 ± 0.015
GYRRELGVCSGD	0.586 ± 0.08
GYTSADHATALY	0.755 ± 0.054
GYWPWGLARVDV	0.698 ± 0.017
HACGGVFLSSVR	0.693 ± 0.025
HAGLLTSSHPGR	0.705 ± 0.018
HAISHRVFLHSP	0.665 ± 0.025
HALWRASVGQCG	0.693 ± 0.068
HAQTNSNSQLLL	0.677 ± 0.0076
HDDQIRASQNKL	0.747 ± 0.026
HDLVRECVGPVH	0.602 ± 0.024
HDVGEYVKKNRF	0.653 ± 0.011
HEGAISLCRQTC	0.592 ± 0.058
HEIRSQSFGLYV	0.687 ± 0.025
HETRGKTEQNWM	0.645 ± 0.053
HFAAVFATSISG	0.675 ± 0.02
HFCFKVFSVRAP	0.627 ± 0.018
HFPFYPSAPPPF	0.713 ± 0.056
HFPTTSITPIYC	0.601 ± 0.019
HFSDLIRFFFFA	0.579 ± 0.064
HGCRLCFISSWL	0.663 ± 0.0057
HGERMRKSPREE	0.672 ± 0.11
HGGSFSAFWYLL	0.676 ± 0.027
HGGTGDPAGIES	0.694 ± 0.013

Sequence	protein stability index
HGTRPFLAPMTP	0.672 ± 0.0092
HGVSERPSISEY	0.6797 ± 0.0066
HGVTPFFSSSPR	0.632 ± 0.012
HGVVGWKVNVGG	0.695 ± 0.018
HHIAYTALSVWS	0.663 ± 0.011
HHVDLHLSLPSP	0.649 ± 0.032
HILESKKAGPGD	0.635 ± 0.053
HILSPPPRPPLV	0.719 ± 0.02
HIPAFLSRFIHG	0.685 ± 0.038
HISACKFPARTA	0.692 ± 0.057
HKGRVRACVFGV	0.666 ± 0.017
HKKRPKIRSNEY	0.622 ± 0.026
HKLYATANHSPM	0.672 ± 0.1
HLFNLVRIRTDL	0.703 ± 0.049
HLGTLYSSPLYR	0.66289 ± 0.00054
HLHAPSPPTLTL	0.682 ± 0.013
HLIQPDPRASNN	0.751 ± 0.098
HLKRFLQVHARL	0.82 ± 0.075
HLLRSDPAWFSG	0.705 ± 0.009
HLPPPPTLPPFP	0.6905 ± 0.0068
HLSDAGSPDGAN	0.628 ± 0.063
HLSLFHIALPPP	0.6888 ± 0.0053
HLTIVNYIWEIL	0.549 ± 0.0059
HLVYRRGLEVTF	0.615 ± 0.061
HMLRLIDFQSIV	0.685 ± 0.042

Sequence	protein stability index
HPAPGSPPAAHL	0.734 ± 0.073
HPASPPTPPPLP	0.663 ± 0.014
HPFARSLRSQIT	0.734 ± 0.043
HPGVPGSPFLSC	0.714 ± 0.041
HPHAIDPKIESI	0.693 ± 0.035
HPMVFRLAAPRL	0.779 ± 0.18
HPPHFPTPFFSP	0.702 ± 0.036
HPPLRPPLGSRF	0.868 ± 0.045
HPPLTPLRANLP	0.74 ± 0.039
HPPRVLHGVPSG	0.629 ± 0.075
HPPSSLLSPPSP	0.702 ± 0.042
HPRSAYSLAASL	0.6633 ± 0.00083
HPSAALLSSCYK	0.677 ± 0.047
HPSPFTPPTNPY	0.733 ± 0.06
HPSPPAPAPLYP	0.667 ± 0.11
HPSRPPRASPPS	0.693 ± 0.03
HPVSVKPSESSR	0.668 ± 0.073
HQRGGPLPSSRR	0.739 ± 0.12
HQSISLSGAMLT	0.65 ± 0.0088
HQVPSPPPPGPL	0.707 ± 0.2
HQYSRHASIRTL	0.623 ± 0.06
HRCRVGGSRFEK	0.671 ± 0.036
HRLGNRGGRTLG	0.6512 ± 0.0057
HRPPATFPVAHP	0.735 ± 0.042
HRPPATPADPCS	0.684 ± 0.019

Sequence	protein stability index
HRPSPSPSPPLP	0.752 ± 0.056
HRPTRLIKKNLA	0.732 ± 0.033
HRRMGVGGCLEE	0.682 ± 0.046
HRVPRLRGQNPP	0.635 ± 0.0073
HRVVGVTLSVPS	0.71 ± 0.071
HSALLRSASLSF	0.705 ± 0.022
HSAPDLPPLPRV	0.711 ± 0.02
HSCSRPLTPPPF	0.72 ± 0.028
HSGGRVYSYACI	0.6851 ± 0.0017
HSIPWTRTRPGC	0.687 ± 0.016
HSLLPSYPFLSP	0.715 ± 0.076
HSPHLLSFFSPM	0.71 ± 0.076
HSPSSLPRLRPQ	0.621 ± 0.044
HSRPPPSPPDPA	0.603 ± 0.033
HSRTLTQKKTNN	0.715 ± 0.038
HSSHPRPHRTLI	0.661 ± 0.012
HSWSLLFSPSFP	0.658 ± 0.082
HTAYPPPHRTPP	0.629 ± 0.11
HTEYQGAGIPDE	0.752 ± 0.037
HTFSRLHSLPIR	0.693 ± 0.0082
HTNKNTTIQNKK	0.702 ± 0.11
